Earlier results, collected in PMC10480133.

Target: GRGDSPK peptide

Kd: 12.2 nM
Substance: Integrin αvβ3 (from UniProt P06756)
